Positions of bridges follow the written chain, without caps; N, C: chain ends. Non-standard residues stand in square brackets, D forms with d. No end group written: not given here. Aib = CC(C)(N)C(=O)O
T1: human GIP receptor (human, UniProt P48546 22-466)
T1 sequence (looked up): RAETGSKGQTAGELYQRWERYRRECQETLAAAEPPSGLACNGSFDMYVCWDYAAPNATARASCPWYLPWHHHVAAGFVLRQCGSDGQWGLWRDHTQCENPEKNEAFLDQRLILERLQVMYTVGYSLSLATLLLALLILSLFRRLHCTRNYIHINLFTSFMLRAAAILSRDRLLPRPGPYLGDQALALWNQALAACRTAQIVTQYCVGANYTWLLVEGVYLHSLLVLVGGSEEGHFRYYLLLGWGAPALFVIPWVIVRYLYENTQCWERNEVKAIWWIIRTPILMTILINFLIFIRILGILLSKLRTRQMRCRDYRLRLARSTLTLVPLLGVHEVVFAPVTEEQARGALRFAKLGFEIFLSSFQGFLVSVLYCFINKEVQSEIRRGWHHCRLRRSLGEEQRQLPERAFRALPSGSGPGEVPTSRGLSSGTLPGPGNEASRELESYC


Experiments:
[1] = test system: pyridoxine-induced peripheral neuropathy in non-diabetic rodents; conditions: Exp Neurol. 2007; cited from earlier work
[2] = test system: relapsing/remitting multiple sclerosis mouse model; conditions: Mol Neurobiol. 2018, cited from earlier work
[3] = biological target: human GLP-1 receptor (human, UniProt P43220 24-463); experiment: cell-based or functional assay
[4] = biological target: human GCG receptor (human, UniProt P47871 26-477); experiment: cell-based or functional assay
human GCG receptor, sequence (P47871 26-477): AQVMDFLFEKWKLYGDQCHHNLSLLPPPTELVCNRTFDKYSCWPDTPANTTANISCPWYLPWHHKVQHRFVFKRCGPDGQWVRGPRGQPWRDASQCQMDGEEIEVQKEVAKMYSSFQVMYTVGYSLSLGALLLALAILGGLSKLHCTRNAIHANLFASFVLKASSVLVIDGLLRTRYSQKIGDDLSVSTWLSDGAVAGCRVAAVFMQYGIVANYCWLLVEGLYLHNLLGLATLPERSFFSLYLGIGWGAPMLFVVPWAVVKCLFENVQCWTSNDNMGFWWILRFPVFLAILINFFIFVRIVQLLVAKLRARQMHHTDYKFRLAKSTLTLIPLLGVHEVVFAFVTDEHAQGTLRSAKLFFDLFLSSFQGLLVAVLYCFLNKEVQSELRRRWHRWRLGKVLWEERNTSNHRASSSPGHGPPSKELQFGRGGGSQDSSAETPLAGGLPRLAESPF

[5] = biological target: T1, human GIP receptor; experiment: cell-based or functional assay

Molecule | protection against pyridoxine-induced functional and morphological defects [1] | levels of inflammatory cytokines that increase during demyelination [2] | symptoms of multiple sclerosis ([2]; effect similar to that of fingolimod) | In vitro activity (%) compared with native peptide: vs GLP-1 [3] | In vitro activity (%) compared with native peptide: vs Glucagon [4] | In vitro activity (%) compared with native peptide: vs GIP [5]
glucagon-like peptide-1 (HAEGTFTSDVSSYLEGQAAKEFIAWLVKGR; ends and bridges not checked; UniProt P01275 98-127, looked up) [GLP-1, a typical incretin hormone] | partially protected | – | – | – | – | –
exendin-4 | partially protected | reduced the levels of inflammatory cytokines | symptom alleviating effect | – | – | –
H[Aib]QGTFTSDYSKYLDEKACKDFVQWLLDGGPSSGAPPPS (bridge 16-20; not fully specified) [triple agonist of SEQ ID NO: 32] | – | – | – | 151% | 1.7% | 8.8%
H[Aib]QGTFTSDYSKYLDERACQDFVQWLLDQGGPSSGAPPPS (not fully specified) [triple agonist of SEQ ID NO: 27] | – | – | – | 83.1% | 0.8% | 0.9%
H[Aib]QGTFTSDVSSYLLGQAAKQFIAWLVKGGGPSSGAPPPSC (not fully specified) [triple agonist of SEQ ID NO: 3] | – | – | – | 1.8% | < 0.1% | < 0.1%
H[Aib]QGTFTSDCSKYLDERAAQDFVQWLLDGGPSSGAPPPS (not fully specified) [triple agonist of SEQ ID NO: 25] | – | – | – | 82.6% | 0.1% | < 0.1%
Y[Aib]QGTFTSDYSKYLDECRAKEFVQWLKNGGPSSGAPPPS (bridge 16-20) [triple agonist of SEQ ID NO: 24] | – | – | – | 41.2% | 9.3% | < 0.1%
H[Aib]QGTFTSDYSKYLDEKACKEFVQWLLAQ (bridge 16-20; not fully specified) [triple agonist of SEQ ID NO: 31] | – | – | – | 135% | 2.2% | 2.4%
H[Aib]QGTFTSDCSKYLDSRAAQDFVQWLLDGGPSSGAPPPS (not fully specified) [triple agonist of SEQ ID NO: 26] | – | – | – | 64.5% | 0.2% | < 0.1%
Y[Aib]QGTFTSDYSKYLDECRAKEFVQWLLAQKGKKNDWKHNIT (bridge 16-20; not fully specified) [triple agonist of SEQ ID NO: 23] | – | – | – | 4.01% | 9.3% | < 0.1%
H[Aib]QGTFTSDYSKYLDEKAAKEFVQWLLNTC (bridge 16-20; not fully specified) [triple agonist of SEQ ID NO: 29] | – | – | – | 38.5% | 6% | < 0.1%
H[Aib]QGTFTSDYSKYLDEKAQKEFVQWLLDTC (bridge 16-20; not fully specified) [triple agonist of SEQ ID NO: 30] | – | – | – | 142% | 0.7% | 0.8%
H[Aib]QGTFTSDYSKYLDEKRAQEFVCWLLAQKGKKNDWKHNIT (not fully specified) [triple agonist of SEQ ID NO: 28] | – | – | – | 17.2% | 1.6% | < 0.1%

Source: patent US20230372448A1, “THERAPEUTIC USE OF LONG-ACTING CONJUGATE OF TRIPLE AGONIST ACTING ON ALL OF GLUCAGON, GLP-1 AND GIP RECEPTORS AGAINST MULTIPLE SCLEROSIS” (HANMI PHARM. CO. ,LTD., priority 2020, published 2023)
